The record followed here is the RNAGym collection of RNA variant scans (doi:10.7554/elife.80360).

First the molecules themselves.
B1: Hairpin Ribozyme (parent)
chain: GUCCUCUUUCACGUGCGCGUGAAAGAGAGAAGUGAACCAGAGAAACACACGUUGUGGUAUAUUACCUGGUA

This series covers variants of B1. Kind of series: self-cleavage, relative activity (ratio to wild type); higher = more cleavage; co-transcriptional.
On to CUCCUCUUUCACGUGCGCGUGAAAGAGAGAAGUGAACCAGAGAAACACACGUUGUGGUAUAUUACCUGGGA, for which the self-cleavage came to 0.166.

As to CUCCUCUUUCACGUGCGCGUGAAAGAGAGAAGUGAACCAGAGAAACACACGUUGUGGUAUAUUUCCUGGUA, the self-cleavage was determined as 0.107.

As for CUCCUCUUUCACGUGCGCGUGAAAGAGAGAAGUGAACCAGAGAAACACACGUUGUGGUAUAUUGCCUGGUA, the self-cleavage was determined as 0.143.

CUCCUCUUGCACGUGCGCGUGAAAGAGAGAAGUGAACCAGAGAAACACACGUUGUGGUAUAUUACCUGGUA: the self-cleavage is 0.125.

As for CUCCUCUUACACGUGCGCGUGAAAGAGAGAAGUGAACCAGAGAAACACACGUUGUGGUAUAUUACCUGGUA, the self-cleavage amounted to 0.117.

Consider CUCCUCUUUCACGUGCGCGUGAAAGAGAGAAGUGAACCAGAGAAACACACGUUGUGGUCUAUUACCUGGUA, for which the self-cleavage came to 0.113.

As to CUCCUCUUUCACGUGCGCGUGAAAGAGAGAGGUGAACCAGAGAAACACACGUUGUGGUAUAUUACCUGGUA, the self-cleavage is 0.187.

Take CUCCUCUUUCACGUGCGCGUGAAAGAGAGAUGUGAACCAGAGAAACACACGUUGUGGUAUAUUACCUGGUA: the self-cleavage turned out to be 0.163.

CUCCUCUUUCACGUGCGCGUGAAAGAGAAAAGUGAACCAGAGAAACACACGUUGUGGUAUAUUACCUGGUA: the self-cleavage came to 0.174.

For the variant CUCCUCUUUCACGUGCGCGUGAAAGAGAGAAGUGAACCAGAGAAACACACGUUGUGUUAUAUUACCUGGUA, the self-cleavage amounted to 0.0983.

In the case of CUCCUCUUUCACGUGCUCGUGAAAGAGAGAAGUGAACCAGAGAAACACACGUUGUGGUAUAUUACCUGGUA, the self-cleavage stood at 0.204.

With CUCCUCUUUCACGUGCGCGUGAAAGAGAGAAGUGAACCAGAGAAACACACGUUGUGGAAUAUUACCUGGUA, the self-cleavage stood at 0.131.

In the case of AUCCUCUUUCACGUGCGCGUGAAAGAGAGAAGUGAACCAGAGAAACACACGUUGUGGUAUAAUACCUGGUA, the self-cleavage stood at 0.192.

Regarding UUCCUCUUUCACGUGCGCGUGUAAGAGAGAAGUGAACCAGAGAAACACACGUUGUGGUAUAUUACCUGGUA, the self-cleavage is 0.119.

Turning to UUCCUCUUUCACGUGCGCGUGGAAGAGAGAAGUGAACCAGAGAAACACACGUUGUGGUAUAUUACCUGGUA, the self-cleavage came to 0.101.

Consider CUCCUCUUUCACGUGCGCGUGAAAGAGAGAAGUGAACCAGAGAAACACACGUUAUGGUAUAUUACCUGGUA, for which the self-cleavage stood at 0.141.

For AUCCUCUUUCACGUGCGCGUGAAAGAGAGAAGUGAACCAGAGAAACACACGUUGCGGUAUAUUACCUGGUA, the self-cleavage was determined as 0.243.

As for AUCCUCUUUCACGUGCGCGUGAAAGAGAGAAGUGAACCAGAGAAACACACGUUGUGGGAUAUUACCUGGUA, the self-cleavage amounted to 0.256.

On to AUCCUCUUUCACGUGCGCGUGAAAGAGAGAAGUGAACCAGAGAAACACACGUUGUGGAAUAUUACCUGGUA, for which the self-cleavage is 0.186.

As to AUCCUCUUUCACGUGCGCGUGAAAGAGAGAAGUGAACCAGAGAAACACACGUUGUGGUAAAUUACCUGGUA, the self-cleavage came out at 0.188.

As for CUCCUCUUUCACGUGCGCGUGAAAGAGAGAAGUGAACCAGAGAAACACACGUUGUGGUACAUUACCUGGUA, the self-cleavage was found to be 0.314.

For CUCCUCUUUCACGUGCGCGUGAAAGAGAGAACUGAACCAGAGAAACACACGUUGUGGUAUAUUACCUGGUA, the self-cleavage amounted to 0.116.

In the case of CUCCUCUUUCACGUGCGCGUGAAAGAGAGAAGUGAACCAGAGAAACACACGUUGUGGUAUAUUACCUUGUA, the self-cleavage was 0.209.

As for CUCCUCUUUCACGUGCGCGUGAAAGAGAGAAGUGAACCAGAGAAACACACGUUGUGGUAUAUUACCUCGUA, the self-cleavage came to 0.379.

With CUCCUCUUUCGCGUGCGCGUGAAAGAGAGAAGUGAACCAGAGAAACACACGUUGUGGUAUAUUACCUGGUA, the self-cleavage is 0.194.

For the variant CUCCUCUUUCCCGUGCGCGUGAAAGAGAGAAGUGAACCAGAGAAACACACGUUGUGGUAUAUUACCUGGUA, the self-cleavage was determined as 0.0386.

Regarding CUCCUCUUUCACGUGCGCGUGAAAGAGAGAAGAGAACCAGAGAAACACACGUUGUGGUAUAUUACCUGGUA, the self-cleavage is 0.0439.

On to CUCCUCUUUCACGUGCGCGUGAAAGAGAGAAGUAAACCAGAGAAACACACGUUGUGGUAUAUUACCUGGUA, for which the self-cleavage was determined as 0.162.

Consider CUCCUCUUUCACGUGCGCGUGAAAGAGAGAAGUCAACCAGAGAAACACACGUUGUGGUAUAUUACCUGGUA, for which the self-cleavage came to 0.211.

As to CUCGUCUUUCACGUGCGCGUGAAAGAGAGAAGUGAACCAGAGAAACACACGUUGUGGUAUAUUACCUGGUA, the self-cleavage is 0.301.

As for CUCCUCUUUCACGUGCGCGUGAAAGAGAGAAGUGAACCAGAGAAACACACGUUGUGGUAUAUUACCUGGUU, the self-cleavage amounted to 0.153.

For CUCCUCUUUCACGUGCGCGUGAAAGAGAGAAGUGAACCAGAGAAACACACGUUGUGGUAUAUUACCUGGUC, the self-cleavage turned out to be 0.328.

Consider CUCCUCUUUCACGGGCGCGUGAAAGAGAGAAGUGAACCAGAGAAACACACGUUGUGGUAUAUUACCUGGUA, for which the self-cleavage was found to be 0.101.

For CUCCUCUUUCACGUGCGCGUGAAAGAGAGAAGUGAACCAGAGAAACACACGUGGUGGUAUAUUACCUGGUA, the self-cleavage is 0.046.

As to CUCCUCUUUAACGUGCGCGUGAAAGAGAGAAGUGAACCAGAGAAACACACGUUGUGGUAUAUUACCUGGUA, the self-cleavage was 0.102.

Take CUCCUCUUUCACGUGCGCGUGAAAUAGAGAAGUGAACCAGAGAAACACACGUUGUGGUAUAUUACCUGGUA: the self-cleavage was 0.211.

With CUCCUCUCUCACGUGCGCGUGAAAGAGAGAAGUGAACCAGAGAAACACACGUUGUGGUAUAUUACCUGGUA, the self-cleavage is 0.172.

For CUCCUCUUUCACGUGCGCGUGAAAGAGAGAAGUGAACCAGAGAAACACACGGUGUGGUAUAUUACCUGGUA, the self-cleavage turned out to be 0.206.
